Measured values published in patent publication US20220119534A1 (DRAGONFLY THERAPEUTICS, published 2022).

Experiments:
[1] = target: T1, Human CD16a V158 (FcγRIIIa V158) (human, UniProt P08637 17-208, biotinylated (site not stated)); assay: SPR; biotinylated CD16a V158 captured on SA chip, TriNKET as analyte; 1:1 kinetic fit; control sample, n=3
T1 construct: V158 is the allele name in mature numbering; also called hCD16aV; hCD16a V158

Human CLEC12A-His = target: T2, Human CLEC12A-His (human, UniProt Q5QGZ9 65-265); assay: SPR Biacore 8K 37 C; TriNKET captured on anti-hFc chip, hCLEC12A-His as analyte; 1:1 fit; control sample, n=2
T2 construct: Recombinant soluble protein made in house (Dragonfly Tx); The hCLEC12A spot of the HuProt array is written under this molecule as well; also called hCLEC12A-His; hCLEC12A; not shown: His tag
T2 sequence: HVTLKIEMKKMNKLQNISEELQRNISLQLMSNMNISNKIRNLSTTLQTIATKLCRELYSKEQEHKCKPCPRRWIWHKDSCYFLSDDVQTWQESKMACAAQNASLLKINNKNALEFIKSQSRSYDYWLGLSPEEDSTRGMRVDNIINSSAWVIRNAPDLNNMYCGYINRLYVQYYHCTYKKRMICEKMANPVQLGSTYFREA

mFc-hNKG2D [2] = target: T3, mFc-hNKG2D (human, UniProt P26718 73-216); assay: SPR Biacore 8K 37 C; mFc-hNKG2D captured on anti-mFc chip, TriNKET as analyte; 1:1 kinetic fit; after 4 wks 40 C in CST pH 7.0, n=3
T3 construct: extracellular domain; Made in house (Dragonfly Tx); the order of tag and ECD follows the name mFc-hNKG2D; also called mFc-tagged human NKG2D; not shown: mouse Fc tag
T3 sequence (looked up): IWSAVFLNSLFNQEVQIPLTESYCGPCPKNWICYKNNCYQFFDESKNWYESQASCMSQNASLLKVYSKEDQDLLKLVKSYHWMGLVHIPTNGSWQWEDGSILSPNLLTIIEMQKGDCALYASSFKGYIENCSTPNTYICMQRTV

mFc-cNKG2D = target: T4, mFc-cNKG2D (cynomolgus monkey, UniProt P61252 73-216); assay: SPR Biacore 37 C; mFc-tagged cyno NKG2D dimer, TriNKET as analyte; kinetics fit; average of 4
T4 construct: extracellular domain; Made in house (Dragonfly Tx); also called recombinant cyno NKG2D extracellular domain (ECD); mFc-tagged cyno NKG2D dimer; not shown: mouse Fc tag
T4 sequence (looked up): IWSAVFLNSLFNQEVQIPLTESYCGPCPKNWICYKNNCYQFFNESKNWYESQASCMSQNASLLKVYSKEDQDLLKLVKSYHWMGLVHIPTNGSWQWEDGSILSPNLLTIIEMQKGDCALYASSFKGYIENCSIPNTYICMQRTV

Human CD16a V158 = target: T5, Human CD16a V158 (human, UniProt P08637 17-208, biotinylated); assay: SPR; sample after forced oxidation (0.02% H2O2, 24 h)
T5 construct: Bought recombinant receptor; also called hCD16a (V158); hFcγRIIIa V158

mFc-hNKG2D [3] = target: T6, mFc-hNKG2D (human, UniProt P26718 73-216); assay: as above
T6 construct: extracellular domain; Recombinant mFc-tagged NKG2D dimer, made in house; also called human NKG2D; not shown: mouse Fc tag
T6 sequence (looked up): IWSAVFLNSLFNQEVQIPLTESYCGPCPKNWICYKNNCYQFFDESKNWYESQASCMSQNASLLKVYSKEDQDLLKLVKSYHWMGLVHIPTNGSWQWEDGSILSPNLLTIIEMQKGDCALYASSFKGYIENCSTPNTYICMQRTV

[4] = target: T7, recombinant cynomolgus FcRn (cynomolgus monkey, UniProt Q8SPV9 24-297; Q8SPW0 21-119); assay: SPR 25C, pH 6.0, steady state; pH 6.0; first replicate
T7 construct: also called cFcRn; cyno FcRn
Description: Each FcRn binding experiment consisted of multiple cycles utilizing varying concentrations of analytes. […] As no-signal, negative controls, a 0 nM blank cycle was placed at the start of each concentration series, and a blank amine coupling modified chip surface lacking FcRn were used. Each experimental cycle included association, dissociation, and regeneration steps. The association step consisted of 60 sec analyte injection and was followed by a 60 sec dissociation step. Surface regeneration (60 sec injection of HBS-EP+ buffer, pH 7.4) completed each kinetic cycle. All steps were executed at a flow rate of 30 μL/min and at 25° C. MBS-EP+ buffer, pH 6.0 was used as a running buffer. The data were fitted to a steady state affinity model with Biacore Insight evaluation software. Chi² (calculated by the software) related to the calculated Rₘₐₓ was used to assess goodness of the fit.

[5] = target: T8, recombinant cynomolgus CD16 (cynomolgus monkey, UniProt Q8SPW2 17-208, biotinylated); assay: SPR 25C, steady state, average
T8 construct: also called cFcγRIII; cyno CD16
Excerpt: Human and cyno CD64, high and low affinity alleles of CD16a (V158 and F158, respectively), two alleles of CD32a (H131 and R131), CD16b, CD32b and cynomolgus CD16 were captured via biotin on a primed Biacore chip, prepared according to the manufacturer's instructions.

recombinant human FcRn = target: T9, recombinant human FcRn (human, UniProt P55899 24-297; P61769 21-119); assay: SPR 25C, pH 6.0, steady state, average; pH 6.0; average of four replicates
T9 construct: also called hFcRn

[6] = target: T10, human CLEC12A expressed on cells (human, UniProt Q5QGZ9 1-265); assay: flow cytometry, HL-60
T10 construct: Transduced isogenic cells or endogenous expression on AML cells; also called RMA-hCLEC12A; Ba/F3-hCLEC12A
T10 sequence: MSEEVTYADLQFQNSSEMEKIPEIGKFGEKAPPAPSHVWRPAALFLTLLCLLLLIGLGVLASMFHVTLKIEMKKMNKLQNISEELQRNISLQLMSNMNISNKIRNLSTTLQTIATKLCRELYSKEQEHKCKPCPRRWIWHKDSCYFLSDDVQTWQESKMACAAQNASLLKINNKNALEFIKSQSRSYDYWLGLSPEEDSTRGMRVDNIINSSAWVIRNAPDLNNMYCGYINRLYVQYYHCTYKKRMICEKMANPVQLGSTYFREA

human CLEC12A-K244Q-His = target: T11, human CLEC12A-K244Q-His (human, UniProt Q5QGZ9 65-265); assay: SPR
T11 construct: Polymorphic variant; also called hCLEC12A-K244Q; CLEC12A (Q244)
T11 chain: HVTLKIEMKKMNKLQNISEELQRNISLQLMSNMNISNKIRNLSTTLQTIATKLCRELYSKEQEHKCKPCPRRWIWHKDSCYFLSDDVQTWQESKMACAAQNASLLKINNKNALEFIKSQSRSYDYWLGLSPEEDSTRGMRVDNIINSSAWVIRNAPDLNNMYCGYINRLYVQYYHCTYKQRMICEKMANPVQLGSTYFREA

[7] = target: T12, recombinant human CLEC12A-His (human, UniProt Q5QGZ9 65-265); assay: SPR
T12 construct: also called hCLEC12A-His; hCLEC12A
T12 sequence: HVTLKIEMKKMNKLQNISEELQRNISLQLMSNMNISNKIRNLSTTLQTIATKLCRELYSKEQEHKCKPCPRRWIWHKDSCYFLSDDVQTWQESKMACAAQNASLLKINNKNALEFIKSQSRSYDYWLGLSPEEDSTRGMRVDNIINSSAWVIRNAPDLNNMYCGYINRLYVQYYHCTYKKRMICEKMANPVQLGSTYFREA

T1 sequence (P08637 17-208 F176V limits assumed): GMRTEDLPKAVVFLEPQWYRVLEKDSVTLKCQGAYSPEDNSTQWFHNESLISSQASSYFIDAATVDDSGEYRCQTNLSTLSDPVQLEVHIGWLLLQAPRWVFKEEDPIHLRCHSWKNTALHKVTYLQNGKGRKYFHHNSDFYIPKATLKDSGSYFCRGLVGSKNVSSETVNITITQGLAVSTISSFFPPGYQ
T5 sequence (P08637 17-208 F176V limits assumed): as above
T7 sequence (Q8SPV9 24-297 limits assumed, chain 1 of 2): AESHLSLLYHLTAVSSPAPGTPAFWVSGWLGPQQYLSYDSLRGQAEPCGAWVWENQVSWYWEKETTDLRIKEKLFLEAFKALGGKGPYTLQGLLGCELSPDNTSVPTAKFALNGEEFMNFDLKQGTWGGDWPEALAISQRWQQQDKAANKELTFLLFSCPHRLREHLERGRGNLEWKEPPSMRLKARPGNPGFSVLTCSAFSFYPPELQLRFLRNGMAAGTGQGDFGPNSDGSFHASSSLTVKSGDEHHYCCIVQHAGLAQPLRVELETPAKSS
T7 sequence (Q8SPW0 21-119 limits assumed, chain 2 of 2): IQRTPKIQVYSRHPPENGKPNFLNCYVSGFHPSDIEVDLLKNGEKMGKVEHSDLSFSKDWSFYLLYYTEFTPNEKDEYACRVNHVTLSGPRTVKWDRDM
T8 sequence (Q8SPW2 17-208 limits assumed): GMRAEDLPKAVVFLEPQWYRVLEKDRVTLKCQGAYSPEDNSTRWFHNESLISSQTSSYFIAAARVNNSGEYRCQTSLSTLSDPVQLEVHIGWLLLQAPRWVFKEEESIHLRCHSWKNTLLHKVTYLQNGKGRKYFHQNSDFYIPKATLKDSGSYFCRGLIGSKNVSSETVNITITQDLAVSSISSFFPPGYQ
T9 sequence (P55899 24-297 limits assumed, chain 1 of 2): as the sequence (Q8SPV9 24-297 limits assumed, chain 1 of 2) above, with D39N, Q44E, S99G, G189S, N190S, M217L, T269S counted along it
T9 sequence (P61769 21-119 limits assumed, chain 2 of 2): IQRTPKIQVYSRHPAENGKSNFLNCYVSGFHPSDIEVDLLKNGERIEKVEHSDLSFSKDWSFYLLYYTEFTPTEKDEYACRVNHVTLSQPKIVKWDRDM

B1: F3'-1602 TriNKET (bispecific antibody, human IgG1, kappa)
chain: QLQLQESGPGLVKPSETLSLTCTVSGFSLTNYGLHWIRQPPGKCLEWIGVIWSGGKTDYNPSLKSRVTISKDTSKNQFSLKLSSVQAADTAVYYCAKYDYDDSLDYWGQGTLVTVSSGGGGSGGGGSGGGGSGGGGSDIQMTQSPSSLSASVGDRVTITCHASQNINFWLSWYQQKPGKAPKLLIYEASNLHTGVPSRFSGSGSGTRFTLTISSLQPEDIATYYCQQSHSYPLTFGCGTKLEIKGSDKTHTCPPCPAPELLGGPSVFLFPPKPKDTLMISRTPEVTCVVVDVSHEDPEVKFNWYVDGVEVHNAKTKPREEQYNSTYRVVSVLTVLHQDWLNGKEYKCKVSNKALPAPIEKTISKAKGQPREPRVYTLPPCRDELTKNQVSLTCLVKGFYPSDIAVEWESNGQPENNYKTTPPVLVSDGSFTLYSKLTVDKSRWQQGNVFSCSVMHEALHNHYTQKSLSLSPG
heavy: EVQLVESGGGLVKPGGSLRLSCAASGFTFSSYSMNWVRQAPGKGLEWVSSISSSSSYIYYADSVKGRFTISRDNAKNSLYLQMNSLRAEDTAVYYCARGAPIGAAAGWFDPWGQGTLVTVSSASTKGPSVFPLAPSSKSTSGGTAALGCLVKDYFPEPVTVSWNSGALTSGVHTFPAVLQSSGLYSLSSVVTVPSSSLGTQTYICNVNHKPSNTKVDKKVEPKSCDKTHTCPPCPAPELLGGPSVFLFPPKPKDTLMISRTPEVTCVVVDVSHEDPEVKFNWYVDGVEVHNAKTKPREEQYNSTYRVVSVLTVLHQDWLNGKEYKCKVSNKALPAPIEKTISKAKGQPREPQVCTLPPSRDELTENQVSLTCLVKGFYPSDIAVEWESNGQPENNYKTTPPVLDSDGSFFLYSWLTVDKSRWQQGNVFSCSVMHEALHNHYTQKSLSLSPG
light: DIQMTQSPSSVSASVGDRVTITCRASQGISSWLAWYQQKPGKAPKLLIYAASSLQSGVPSRFSGSGSGTDFTLTISSLQPEDFATYYCQQGVSFPRTFGGGTKVEIKRTVAAPSVFIFPPSDEQLKSGTASVVCLLNNFYPREAKVQWKVDNALQSGNSQESVTEQDSKDSTYSLSSTLTLSKADYEKHKVYACEVTHQGLSSPVTKSFNRGEC
notes: Trispecific F3' format: CLEC12A scFv-Fc paired with NKG2D Fab-Fc; Stressed and control samples of the stability studies are the same molecule; also called AB0237
[1]
  Kd: 212 nM
  koff: 0.024 s⁻¹
  kon: 113000 M⁻¹ s⁻¹
Human CLEC12A-His
  Kd: 0.98 nM
  koff: 0.000735 s⁻¹
  kon: 750000 M⁻¹ s⁻¹
mFc-hNKG2D [2]
  Kd: 708 nM
  koff: 0.14 s⁻¹
  kon: 198000 M⁻¹ s⁻¹
mFc-cNKG2D
  Kd: 839 nM

B2: AB0192 TriNKET (other)
chain: EVQLVESGGGVVQPGGSLRLSCAASGFTFNAFGMHWVRQAPGKCLEWVAFISSGSTSIYYANTVKGRFTISRDNSKNTLYLQMNSLRAEDTAVYYCARDGYPTGGAMDYWGQGTSVTVSSGGGGSGGGGSGGGGSGGGGSDIQMTQSPSSLSASVGDRVTITCKASQDIYNYLSWFQQKPGKAPKPLIYRANILVSGVPSRFSGSGSGQDYTFTISSLQPEDIATYYCLQFDAFPFTFGCGTKLEIKGSDKTHTCPPCPAPELLGGPSVFLFPPKPKDTLMISRTPEVTCVVVDVSHEDPEVKFNWYVDGVEVHNAKTKPREEQYNSTYRVVSVLTVLHQDWLNGKEYKCKVSNKALPAPIEKTISKAKGQPREPRVYTLPPCRDELTKNQVSLTCLVKGFYPSDIAVEWESNGQPENNYKTTPPVLVSDGSFTLYSKLTVDKSRWQQGNVFSCSVMHEALHNHYTQKSLSLSPG
heavy: EVQLVESGGGLVKPGGSLRLSCAASGFTFSSYSMNWVRQAPGKGLEWVSSISSSSSYIYYADSVKGRFTISRDNAKNSLYLQMNSLRAEDTAVYYCARGAPIGAAAGWFDPWGQGTLVTVSSASTKGPSVFPLAPSSKSTSGGTAALGCLVKDYFPEPVTVSWNSGALTSGVHTFPAVLQSSGLYSLSSVVTVPSSSLGTQTYICNVNHKPSNTKVDKKVEPKSCDKTHTCPPCPAPELLGGPSVFLFPPKPKDTLMISRTPEVTCVVVDVSHEDPEVKFNWYVDGVEVHNAKTKPREEQYNSTYRVVSVLTVLHQDWLNGKEYKCKVSNKALPAPIEKTISKAKGQPREPQVCTLPPSRDELTENQVSLTCLVKGFYPSDIAVEWESNGQPENNYKTTPPVLDSDGSFFLYSWLTVDKSRWQQGNVFSCSVMHEALHNHYTQKSLSLSPG
light: DIQMTQSPSSVSASVGDRVTITCRASQGISSWLAWYQQKPGKAPKLLIYAASSLQSGVPSRFSGSGSGTDFTLTISSLQPEDFATYYCQQGVSFPRTFGGGTKVEIKRTVAAPSVFIFPPSDEQLKSGTASVVCLLNNFYPREAKVQWKVDNALQSGNSQESVTEQDSKDSTYSLSSTLTLSKADYEKHKVYACEVTHQGLSSPVTKSFNRGEC
notes: the condition stands under assay; also called AB0192 Lot AB0192-005
Human CD16a V158
  Kd: 162 nM
  koff: 0.0192 s⁻¹
  kon: 119000 M⁻¹ s⁻¹
mFc-hNKG2D [3]
  Kd: 612 nM
  koff: 0.119 s⁻¹
  kon: 195000 M⁻¹ s⁻¹

B3: F3'-1602 TriNKET (other)
chain: QLQLQESGPGLVKPSETLSLTCTVSGFSLTNYGLHWIRQPPGKCLEWIGVIWSGGKTDYNPSLKSRVTISKDTSKNQFSLKLSSVQAADTAVYYCAKYDYDDSLDYWGQGTLVTVSSGGGGSGGGGSGGGGSGGGGSDIQMTQSPSSLSASVGDRVTITCHASQNINFWLSWYQQKPGKAPKLLIYEASNLHTGVPSRFSGSGSGTRFTLTISSLQPEDIATYYCQQSHSYPLTFGCGTKLEIKGSDKTHTCPPCPAPELLGGPSVFLFPPKPKDTLMISRTPEVTCVVVDVSHEDPEVKFNWYVDGVEVHNAKTKPREEQYNSTYRVVSVLTVLHQDWLNGKEYKCKVSNKALPAPIEKTISKAKGQPREPRVYTLPPCRDELTKNQVSLTCLVKGFYPSDIAVEWESNGQPENNYKTTPPVLVSDGSFTLYSKLTVDKSRWQQGNVFSCSVMHEALHNHYTQKSLSLSPG
heavy: EVQLVESGGGLVKPGGSLRLSCAASGFTFSSYSMNWVRQAPGKGLEWVSSISSSSSYIYYADSVKGRFTISRDNAKNSLYLQMNSLRAEDTAVYYCARGAPIGAAAGWFDPWGQGTLVTVSSASTKGPSVFPLAPSSKSTSGGTAALGCLVKDYFPEPVTVSWNSGALTSGVHTFPAVLQSSGLYSLSSVVTVPSSSLGTQTYICNVNHKPSNTKVDKKVEPKSCDKTHTCPPCPAPELLGGPSVFLFPPKPKDTLMISRTPEVTCVVVDVSHEDPEVKFNWYVDGVEVHNAKTKPREEQYNSTYRVVSVLTVLHQDWLNGKEYKCKVSNKALPAPIEKTISKAKGQPREPQVCTLPPSRDELTENQVSLTCLVKGFYPSDIAVEWESNGQPENNYKTTPPVLDSDGSFFLYSWLTVDKSRWQQGNVFSCSVMHEALHNHYTQKSLSLSPG
light: DIQMTQSPSSVSASVGDRVTITCRASQGISSWLAWYQQKPGKAPKLLIYAASSLQSGVPSRFSGSGSGTDFTLTISSLQPEDFATYYCQQGVSFPRTFGGGTKVEIKRTVAAPSVFIFPPSDEQLKSGTASVVCLLNNFYPREAKVQWKVDNALQSGNSQESVTEQDSKDSTYSLSSTLTLSKADYEKHKVYACEVTHQGLSSPVTKSFNRGEC
notes: CLEC12A scFv-Fc, NKG2D A49MI Fab-Fc, human IgG1 Fc; also called AB0237
[4]
  Kd: 1100 nM
[5]
  Kd: 306 nM
Recombinant human FcRn
  Kd: 1400 nM
[6]
  fold lower EC50 than AB0010: ~2 fold
Human CLEC12A-K244Q-His
  Kd: 0.77 nM
  koff: 0.000436 s⁻¹
  kon: 565000 M⁻¹ s⁻¹
[7]
  Kd: 0.6 nM
  koff: 0.000496 s⁻¹
  kon: 826000 M⁻¹ s⁻¹
